From PMC5387032 (Photosynthesis Research, 2017)

T1: RbcL from Thermosynechococcus elongatus, made in E. coli (Thermosynechococcus vestitus (strain …, UniProt Q8DIS5))
T1 chain: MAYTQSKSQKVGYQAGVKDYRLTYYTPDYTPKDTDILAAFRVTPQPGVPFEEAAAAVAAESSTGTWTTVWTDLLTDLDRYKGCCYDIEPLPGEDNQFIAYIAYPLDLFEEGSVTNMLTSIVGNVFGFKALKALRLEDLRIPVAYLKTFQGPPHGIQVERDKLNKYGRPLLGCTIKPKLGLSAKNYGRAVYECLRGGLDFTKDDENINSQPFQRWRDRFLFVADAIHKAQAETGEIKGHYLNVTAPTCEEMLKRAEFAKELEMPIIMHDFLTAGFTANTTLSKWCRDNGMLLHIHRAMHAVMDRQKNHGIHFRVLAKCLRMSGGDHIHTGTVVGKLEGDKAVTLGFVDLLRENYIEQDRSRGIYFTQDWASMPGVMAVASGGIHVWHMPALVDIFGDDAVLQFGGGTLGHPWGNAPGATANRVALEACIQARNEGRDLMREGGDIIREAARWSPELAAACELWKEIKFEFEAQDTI


Experiments:
[1] = molecular target: the molecule itself; assay: native gel or EMSA; raf1 from Synechocystis co-expressed with rbcL genes in E. coli (or rbcL alone); crude extracts separated by native PAGE and probed with anti-RbcL or anti-RAF1 antibodies
[2] = molecular target: T1, RbcL from Thermosynechococcus …; assay: co-expression in E. coli with co-purification of the complex; native PAGE

| binding result [2] | Binder | stoichiometry N [1] |
| --- | --- | --- |
|  | RbcL from Thermosynechococcus elongatus, made in E. coli (natural protein, UniProt Q8DIS5 1-475, looked up, Ribulose-1,5-bisphosphate carboxylase/oxygenase large subunit, Thermosynechococcus elongatus; rbcL gene in the previously described pUC18rbcL plasmid (Tarnawski et al. 2008); also called RbcLTe; Te; source: E. coli Rosetta, expressed alone or co-expressed with raf1 or rbcX from Synechocystis, in crude extract; complexes purified (ammonium sulfate, Q-Sepharose)) MAYTQSKSQKVGYQAGVKDYRLTYYTPDYTPKDTDILAAFRVTPQPGVPFEEAAAAVAAESSTGTWTTVWTDLLTDLDRYKGCCYDIEPLPGEDNQFIAYIAYPLDLFEEGSVTNMLTSIVGNVFGFKALKALRLEDLRIPVAYLKTFQGPPHGIQVERDKLNKYGRPLLGCTIKPKLGLSAKNYGRAVYECLRGGLDFTKDDENINSQPFQRWRDRFLFVADAIHKAQAETGEIKGHYLNVTAPTCEEMLKRAEFAKELEMPIIMHDFLTAGFTANTTLSKWCRDNGMLLHIHRAMHAVMDRQKNHGIHFRVLAKCLRMSGGDHIHTGTVVGKLEGDKAVTLGFVDLLRENYIEQDRSRGIYFTQDWASMPGVMAVASGGIHVWHMPALVDIFGDDAVLQFGGGTLGHPWGNAPGATANRVALEACIQARNEGRDLMREGGDIIREAARWSPELAAACELWKEIKFEFEAQDTI | 8 |
| binds | RAF1 from Synechocystis sp. PCC 6803, untagged, made in E. coli (protein) MTHSPESNPTVSAAEAAELIRSLLHKEGTWVDWGKKCQQLQKAGYGAEEIFEQSGFQKVQQNLVIVASQVYESLVKQGIDETVLSYYRGPKSDVLYELRILNHQQRAIAAVEAQQKNLAADEAKELAKAFQEFGYLSQLPEGFTDHPGDALAYQCWKLARQKKNLPERTRLIVKGLKFAHSPNARQAIEKLLTDLTAQPSRKAPLVPVFRLEEDQEAARLIPVAGTFPLQPQAVQAVQSLEQVEPFGLVSYQGEGAVVPVPQWQAILTAEDPVAIFCPAGQVSESLARKDEQVLVVVDRSKKIWNDGSYFLLNQGETVAIQWCETEPEREILAQVVLVLRPKKIFDANNLREPWQMDD |  |
